Experimental findings from patent US20020049159A1 (published 2002) are described below.

The test addresses T1, OP-1 pro domain polypeptide (human, UniProt P18075 30-292).
T1 construct: Two pro domains (39 kDa each) stand in the soluble complex with one mature dimer; The complex was isolated from CHO conditioned medium; also called pro domain peptide
In words: soluble complex purified from CHO conditioned medium without denaturants (Zn-IMAC, S-Sepharose, Sephacryl S-200HR gel filtration); elutes at an apparent 110 kDa. Here is the method: In this example, OP-1 was expressed in mammalian (CHO, Chinese hamster ovary) cells as described in the art (see, for example, international application US90/05903 (WO 91/05802). The CHO cell conditioned media containing 0.5% FBS is initially purified using Immobilized Metal-Ion Affinity Chromatography (IMAC). The soluble OP-1 complex from conditioned media binds very selectively to the Zn-IMAC resin and a high concentration of imidazole (50 mM imidazole, pH 8.0) is required for the effective elution of the bound complex. The Zn-IMAC purified soluble OP-1 is next applied to an S-Sepharose action-exchange column equilibrated in 20 mM NaPO₄ (pH 7.0) with 50 mM NaCl. The protein then is applied to a Sephacryl S-200HR column equilibrated in TBS. Using substantially the same protocol, soluble morphogens can also be isolated from one or more body fluids, including milk, serum, cerebrospinal fluid or peritoneal fluid.
In general terms: Size exclusion chromatography separates by hydrodynamic size, large species first.

T1 sequence (P18075 30-292): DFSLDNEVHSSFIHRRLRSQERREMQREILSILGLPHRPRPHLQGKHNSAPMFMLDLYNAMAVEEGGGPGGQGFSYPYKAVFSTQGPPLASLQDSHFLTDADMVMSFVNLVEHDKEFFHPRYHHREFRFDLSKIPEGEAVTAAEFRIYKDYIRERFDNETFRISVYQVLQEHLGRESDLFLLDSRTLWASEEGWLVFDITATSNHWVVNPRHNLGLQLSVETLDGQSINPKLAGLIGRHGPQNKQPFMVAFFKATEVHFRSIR

B1: mature human OP-1 dimer (recombinant, expressed in CHO cells) (ligand)
chain: STGSKQRSQNRSKTPKNQEALRMANVAENSSSDQRQACKKHELYVSFRDLGWQDWIIAPEGYAAYYCEGECAFPLNSYMNATNHAIVQTLVHFINPETVPKPCCAPTQLNAISVLYFDDSSNVILKKYRNMVVRACGCH
notes: Dimer of 35-36 kDa, glycosylated when made in CHO cells; also called hOP-1; human osteogenic protein 1
On to B1, for which the binding result is recorded as “binds”.
